Test results taken from patent publication US20210155697A1 (UNITY BIOTECHNOLOGY, published 2021).
Substitutions are numbered along the chain they refer to. Blank lines part the entries; values can stand above or below the binder they belong to.

Experiments:
[1] = target: T1, human full-length Tie2 on cells (human, UniProt Q02763 23-1124); assay: cell-based or functional assay
[2] = target: T1, human full-length Tie2 on cells; assay: flow cytometry on HUVEC; Apparent Kd (EC50 binding)
Description: (§1) Briefly, expression plasmids containing the full-length Tie2 coding sequence for each species were used to transfect primary human endothelial cells (HUVECs) as well as human embryonic kidney (HEK293) cells. A stable cell population was selected by treating transfectants with puromycin antibiotic over the course of 2 weeks and single cell clones were generated using fluorescence activated cell sorting. Upon confirmation of cell surface expression of these Tie2 variants, cell lines were used to determine apparent Kd (EC50) values of anti-Tie2 antibodies on the various Tie2 proteins. […] Cells were labeled with decreasing concentrations of anti-Tie2 antibodies #1, #2, and #3 (10, 5, 2.5, 1, […], 0.63, 0.31, and 0.16 ug/mL) or non-specific hIgG1 antibody (10 ug/mL), followed by labeling with a rabbit anti-human IgG antibody conjugated to an Alexa Fluor 488 fluorophore (20 ug/ml). EC50 values were generated using ForeCyt™ software.

[3] = target: T2, cynomolgus monkey full-length Tie2 on HEK293 cells (cynomolgus monkey, UniProt G7PS68 23-1124); assay: flow cytometry on HEK293/Cyno Tie2 cells, mAb at 10 ug/mL
T2 construct: whole, on cells; also called HEK293/Cyno Tie2; HEK/cyno Tie2
Description: as §1

[4] = target: T1, human full-length Tie2 on cells; assay: flow cytometry on HEK293/Human Tie2 cells, mAb at 10 ug/mL; design: unit not given here
Description: as §1
Target sequence in this assay (Q02763 23-1124 limits assumed): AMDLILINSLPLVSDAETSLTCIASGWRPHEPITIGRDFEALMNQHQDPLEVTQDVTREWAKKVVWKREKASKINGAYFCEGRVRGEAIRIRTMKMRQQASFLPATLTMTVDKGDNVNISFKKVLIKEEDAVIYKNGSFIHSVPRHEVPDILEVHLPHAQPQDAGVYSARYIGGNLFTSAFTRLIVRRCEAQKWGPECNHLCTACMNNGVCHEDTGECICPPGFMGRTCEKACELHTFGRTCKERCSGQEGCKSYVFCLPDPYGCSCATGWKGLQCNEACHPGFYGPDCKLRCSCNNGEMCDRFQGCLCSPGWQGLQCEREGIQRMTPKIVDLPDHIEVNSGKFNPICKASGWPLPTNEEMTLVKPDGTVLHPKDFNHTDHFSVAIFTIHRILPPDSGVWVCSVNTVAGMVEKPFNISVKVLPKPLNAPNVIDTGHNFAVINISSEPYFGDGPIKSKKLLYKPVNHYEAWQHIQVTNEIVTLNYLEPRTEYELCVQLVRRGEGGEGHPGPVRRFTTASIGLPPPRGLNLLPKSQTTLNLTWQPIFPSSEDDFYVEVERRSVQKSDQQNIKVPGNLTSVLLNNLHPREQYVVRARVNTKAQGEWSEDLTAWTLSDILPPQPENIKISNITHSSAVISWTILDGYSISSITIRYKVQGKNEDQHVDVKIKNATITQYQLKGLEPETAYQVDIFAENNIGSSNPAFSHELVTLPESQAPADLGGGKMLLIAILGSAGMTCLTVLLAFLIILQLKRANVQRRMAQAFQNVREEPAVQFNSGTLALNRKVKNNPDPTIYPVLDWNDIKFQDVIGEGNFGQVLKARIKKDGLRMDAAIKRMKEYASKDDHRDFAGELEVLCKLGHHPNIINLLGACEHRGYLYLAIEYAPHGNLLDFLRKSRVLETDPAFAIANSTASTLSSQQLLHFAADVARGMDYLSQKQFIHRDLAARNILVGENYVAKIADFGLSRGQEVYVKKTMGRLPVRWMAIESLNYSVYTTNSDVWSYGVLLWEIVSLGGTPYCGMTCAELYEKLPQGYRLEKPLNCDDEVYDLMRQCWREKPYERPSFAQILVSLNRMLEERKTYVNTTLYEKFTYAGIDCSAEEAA

[5] = target: T3, murine full-length Tie2 on HEK293 cells (mouse, UniProt Q02858 23-1122); assay: flow cytometry on HEK293/Murine Tie2 cells, mAb at 10 ug/mL
T3 construct: whole, on cells; also called HEK293/Murine Tie2; HEK/mTie2
Description: as §1
Target sequence in this assay (Q02858 23-1122): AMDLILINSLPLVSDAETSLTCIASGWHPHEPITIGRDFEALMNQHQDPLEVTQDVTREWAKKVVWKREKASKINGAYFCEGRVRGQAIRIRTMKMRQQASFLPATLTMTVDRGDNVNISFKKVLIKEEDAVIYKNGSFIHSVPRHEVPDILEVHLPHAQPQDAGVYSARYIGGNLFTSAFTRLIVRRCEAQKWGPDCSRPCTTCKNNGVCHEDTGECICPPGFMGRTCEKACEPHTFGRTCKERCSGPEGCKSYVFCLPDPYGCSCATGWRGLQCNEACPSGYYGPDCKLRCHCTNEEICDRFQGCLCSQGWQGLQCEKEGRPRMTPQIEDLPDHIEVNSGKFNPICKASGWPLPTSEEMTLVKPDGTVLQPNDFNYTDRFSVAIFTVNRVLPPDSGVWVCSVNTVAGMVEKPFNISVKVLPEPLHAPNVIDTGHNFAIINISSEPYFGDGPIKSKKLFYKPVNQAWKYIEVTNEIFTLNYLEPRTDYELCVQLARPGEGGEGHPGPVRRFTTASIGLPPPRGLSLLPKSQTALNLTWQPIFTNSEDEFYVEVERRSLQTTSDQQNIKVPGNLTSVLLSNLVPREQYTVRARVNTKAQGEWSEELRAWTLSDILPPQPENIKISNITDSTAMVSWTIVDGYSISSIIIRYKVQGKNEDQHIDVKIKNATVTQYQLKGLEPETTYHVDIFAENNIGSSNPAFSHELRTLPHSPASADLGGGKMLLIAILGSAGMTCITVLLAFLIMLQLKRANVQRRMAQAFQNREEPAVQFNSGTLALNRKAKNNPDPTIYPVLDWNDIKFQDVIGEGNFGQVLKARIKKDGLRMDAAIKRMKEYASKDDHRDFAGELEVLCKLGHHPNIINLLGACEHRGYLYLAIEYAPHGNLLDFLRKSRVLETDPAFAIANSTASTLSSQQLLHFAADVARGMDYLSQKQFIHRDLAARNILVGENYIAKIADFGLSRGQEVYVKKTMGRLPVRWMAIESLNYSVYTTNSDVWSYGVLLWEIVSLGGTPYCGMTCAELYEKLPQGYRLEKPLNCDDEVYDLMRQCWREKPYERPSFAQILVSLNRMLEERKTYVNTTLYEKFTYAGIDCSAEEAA

[6] = target: T4, rabbit full-length Tie2 on HEK cells (rabbit); assay: flow cytometry on HEK/RbTie2 cells; Apparent Kd (EC50 binding)
T4 chain: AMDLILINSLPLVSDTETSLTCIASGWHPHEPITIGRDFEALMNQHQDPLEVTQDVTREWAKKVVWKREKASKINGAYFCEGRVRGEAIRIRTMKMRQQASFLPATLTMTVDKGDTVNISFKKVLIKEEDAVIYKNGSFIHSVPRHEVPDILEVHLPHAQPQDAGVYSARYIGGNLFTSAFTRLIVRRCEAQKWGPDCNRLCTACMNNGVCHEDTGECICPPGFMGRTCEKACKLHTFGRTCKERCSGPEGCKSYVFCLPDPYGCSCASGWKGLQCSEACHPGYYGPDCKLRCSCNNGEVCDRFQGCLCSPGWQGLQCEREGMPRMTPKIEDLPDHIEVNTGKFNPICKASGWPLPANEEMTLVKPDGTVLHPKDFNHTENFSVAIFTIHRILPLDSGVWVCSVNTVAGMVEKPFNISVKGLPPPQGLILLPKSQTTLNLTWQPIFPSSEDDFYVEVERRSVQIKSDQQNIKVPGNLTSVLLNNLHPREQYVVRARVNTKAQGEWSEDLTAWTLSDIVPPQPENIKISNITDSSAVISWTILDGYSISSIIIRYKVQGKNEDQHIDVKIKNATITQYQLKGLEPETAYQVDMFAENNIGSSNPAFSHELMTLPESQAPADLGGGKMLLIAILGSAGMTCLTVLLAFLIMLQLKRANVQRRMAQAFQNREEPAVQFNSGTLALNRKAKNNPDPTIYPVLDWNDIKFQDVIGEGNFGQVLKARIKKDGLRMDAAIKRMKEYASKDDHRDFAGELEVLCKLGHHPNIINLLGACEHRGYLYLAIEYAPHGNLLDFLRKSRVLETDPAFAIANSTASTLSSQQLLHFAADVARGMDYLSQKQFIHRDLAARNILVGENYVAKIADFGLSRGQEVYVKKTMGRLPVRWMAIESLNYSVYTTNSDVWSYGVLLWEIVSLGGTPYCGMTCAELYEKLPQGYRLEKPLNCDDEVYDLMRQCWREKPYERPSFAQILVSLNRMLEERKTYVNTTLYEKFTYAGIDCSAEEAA
Description: as §1

[7] = target: T1, human full-length Tie2 on cells; assay: flow cytometry on HEK/huTie2 cells; Apparent Kd (EC50 binding)
Description: as §1

[8] = target: T5, rat full-length Tie2 on HEK cells (rat, UniProt A0ABK0L6J5 19-1116); assay: flow cytometry on HEK/ratTie2 cells; Apparent Kd (EC50 binding)
T5 construct: whole, on cells; also called HEK/ratTie2
Description: as §1

[9] = target: T2, cynomolgus monkey full-length Tie2 on …; assay: flow cytometry on HEK/cyno Tie2 cells; Apparent Kd (EC50 binding)
Description: as §1

[10] = target: T3, murine full-length Tie2 on HEK293 cells; assay: flow cytometry on HEK/mTie2 cells; Apparent Kd (EC50 binding)
Description: as §1

[11] = target: T6, recombinant human Tie2 ECD protein (human, UniProt Q02763 23-748); assay: SPR (BIACORE), Tie2 ECD immobilized on CM5, Fab as analyte, 25 C
T6 construct: also called human Tie2 extracellular domain
T6 sequence (Q02763 23-748 limits assumed): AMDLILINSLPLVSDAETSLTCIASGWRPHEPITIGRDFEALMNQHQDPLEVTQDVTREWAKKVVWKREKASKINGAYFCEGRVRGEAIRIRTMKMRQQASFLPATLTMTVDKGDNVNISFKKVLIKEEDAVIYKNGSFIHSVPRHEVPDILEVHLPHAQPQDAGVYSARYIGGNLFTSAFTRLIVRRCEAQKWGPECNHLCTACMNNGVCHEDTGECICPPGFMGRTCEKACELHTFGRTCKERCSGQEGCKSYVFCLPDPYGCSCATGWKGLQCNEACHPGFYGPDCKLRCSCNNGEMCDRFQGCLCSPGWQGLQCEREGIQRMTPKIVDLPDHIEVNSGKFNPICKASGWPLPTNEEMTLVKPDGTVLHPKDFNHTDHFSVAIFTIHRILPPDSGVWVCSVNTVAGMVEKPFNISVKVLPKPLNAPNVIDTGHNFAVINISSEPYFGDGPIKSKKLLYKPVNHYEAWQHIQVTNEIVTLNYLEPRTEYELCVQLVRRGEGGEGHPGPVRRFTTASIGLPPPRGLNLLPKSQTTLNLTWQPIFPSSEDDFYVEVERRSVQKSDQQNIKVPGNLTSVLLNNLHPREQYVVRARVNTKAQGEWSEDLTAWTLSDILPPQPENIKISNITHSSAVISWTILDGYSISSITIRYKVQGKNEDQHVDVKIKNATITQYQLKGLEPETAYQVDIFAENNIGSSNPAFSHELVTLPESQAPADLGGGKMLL
Protocol: (§2) BIACORE™ (BIAcore, Inc., Piscataway, N.J.) was performed at 25° C. with immobilized human, rat or mouse Tie2 ECD antigens on carboxymethylated dextran biosensor chips (CM5) chips at about 10 response units (RU). CM5 chips were activated with N-ethyl-N′-(3-dimethylaminopropyl)-carbodiimide hydrochloride (EDC) and N-hydroxysuccinimide (NFIS) according to the supplier's instructions. All Tie2 ECD antigens were diluted with 10 mM sodium acetate, pH 4.8, to […] before injection at a flow rate of 5 μl/minute to achieve approximately 10 RU of coupled protein. Following the injection of each Tie2 ECD, 1 M ethanolamine was injected to block unreacted groups. For kinetics measurements, two-fold serial dilutions of the antibody clone #3 Fab (0.78 nM to 500 nM) were injected in PBS with 0.05% polysorbate 20 (TWEEN™-20) surfactant (PBST) at 25° C. at a flow rate of approximately 25 μl/min. Association rates (kon) and dissociation rates (koff) were calculated using a simple one-to-one Langmuir binding model (BIACORE™ Evaluation Software version 3.2) by simultaneously fitting the association and dissociation sensorgrams. The equilibrium dissociation constant (KD) was calculated as the ratio koff/kon. See, for example, Chen et al., J. Mol. Biol. 293:865-881 (1999).

[12] = target: T7, recombinant mouse Tie2 ECD protein (mouse, UniProt Q02858 23-746); assay: as above
T7 construct: extracellular domain
T7 sequence (Q02858 23-746): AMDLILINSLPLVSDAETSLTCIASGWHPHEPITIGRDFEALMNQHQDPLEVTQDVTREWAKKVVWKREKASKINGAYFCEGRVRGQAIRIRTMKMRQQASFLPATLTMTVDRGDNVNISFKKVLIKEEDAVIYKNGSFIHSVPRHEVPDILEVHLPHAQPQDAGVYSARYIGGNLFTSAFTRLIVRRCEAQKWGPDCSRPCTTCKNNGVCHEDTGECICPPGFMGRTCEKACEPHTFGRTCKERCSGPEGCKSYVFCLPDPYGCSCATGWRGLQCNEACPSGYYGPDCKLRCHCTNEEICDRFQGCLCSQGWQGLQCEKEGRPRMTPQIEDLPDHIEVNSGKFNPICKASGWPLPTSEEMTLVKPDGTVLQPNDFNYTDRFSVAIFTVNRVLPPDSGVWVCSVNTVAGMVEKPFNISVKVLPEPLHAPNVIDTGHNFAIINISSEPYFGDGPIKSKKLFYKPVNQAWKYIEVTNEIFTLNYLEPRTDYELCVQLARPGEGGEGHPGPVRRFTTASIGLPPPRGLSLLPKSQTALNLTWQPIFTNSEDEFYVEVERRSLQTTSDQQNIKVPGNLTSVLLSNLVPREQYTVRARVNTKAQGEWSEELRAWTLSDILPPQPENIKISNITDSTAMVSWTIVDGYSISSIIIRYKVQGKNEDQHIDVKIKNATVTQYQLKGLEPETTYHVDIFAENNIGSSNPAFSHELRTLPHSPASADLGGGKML
Protocol: as §2

[13] = target: T8, Rat Tie2 ECD (rat, UniProt A0ABK0L6J5 19-740); assay: as above
T8 construct: extracellular domain
Protocol: as §2

EC50 of pAkt relative to total Akt in HUVEC cells (western blot, quantitative fluorescence imaging) [1]: 0.54 nM
B1: Angiopoietin-1 (ligand, UniProt Q15389 20-498, looked up)
chain: SNQRRSPENSGRRYNRIQHGQCAYTFILPEHDGNCRESTTDQYNTNALQRDAPHVEPDFSSQKLQHLEHVMENYTQWLQKLENYIVENMKSEMAQIQQNAVQNHTATMLEIGTSLLSQTAEQTRKLTDVETQVLNQTSRLEIQLLENSLSTYKLEKQLLQQTNEILKIHEKNSLLEHKILEMEGKHKEELDTLKEEKENLQGLVTRQTYIIQELEKQLNRATTNNSVLQKQQLELMDTVHNLVNLCTKEGVLLKGGKREEEKPFRDCADVYQAGFNKSGIYTIYINNMPEPKKVFCNMDVNGGGWTVIQHREDGSLDFQRGWKEYKMGFGNPSGEYWLGNEFIFAITSQRQYMLRIELMDWEGNRAYSQYDRFHIGNEKQNYRLYLKGHTGTAGKQSSLILHGADFSTKDADNDNCMCKCALMLTGGWWFDACGPSNLNGMFYTAGQNHGKLNGIKWHYFKGPSYSLRSTTMMIRPLDF

EC50 of pAkt relative to total Akt in HUVEC cells (western blot, quantitative fluorescence imaging) [1]: 0.48 nM
EC50 [2]: 1 nM
Cross-Reactivity Screen (mAb at 10 ug/mL) [3]: 53.2
Cross-Reactivity Screen (mAb at 10 ug/mL) [4]: 64.9
Cross-Reactivity Screen (mAb at 10 ug/mL) [5]: 41.7
EC50 [6]: 4.1 nM
EC50 [7]: 2.7 nM
EC50 [8]: 1.4 nM
EC50 [9]: 7.7 nM
B2: human anti-Tie2 antibody #2 (antibody, V domains shown)
VH: DVQLVESGGGVVRPGESLRLSCAASGFSFINFAMTWVRQAPGEGPEWVSLISDDGRGNRPYYADSVKGRFTISRDNSKNILYLQMNSLRVEDTATYYCAKVSWDVFFDYWGLGTVVTVSS
VL: EIVLTQSPGTVSLSPGERVTLSCRASQPIDVYLAWYQQKPGQAPRLLIYGANRRAIDIPDRFSGSGSGTEFTLTINSLQNEDFAVYFCQQYMTWPPVTFGGGTKVEIK
notes: also called Ab #2; Antibody Clone # 2

Cross-Reactivity Screen (mAb at 10 ug/mL) [3]: 47.5
Cross-Reactivity Screen (mAb at 10 ug/mL) [4]: 65.3
Cross-Reactivity Screen (mAb at 10 ug/mL) [5]: 28.5
B3: anti-Tie2 antibody #31 (antibody, V domains shown)
VH: B2 VH with L18P, V115L
VL: B2 VL
notes: also called Ab #31; Antibody Clone # 31

EC50 of pAkt relative to total Akt in HUVEC cells (western blot, quantitative fluorescence imaging) [1]: 0.45 nM
EC50 [2]: 1.7 nM
Cross-Reactivity Screen (mAb at 10 ug/mL) [3]: 40.2
Cross-Reactivity Screen (mAb at 10 ug/mL) [4]: 40.2
Cross-Reactivity Screen (mAb at 10 ug/mL) [5]: 32.5
EC50 [10]: 6.3 nM
EC50 [6]: 3.3 nM
EC50 [7]: 1.9 nM
EC50 [8]: 4.6 nM
EC50 [9]: 3.7 nM
B4: human anti-Tie2 antibody #3 (antibody, V domains shown)
VH: DVQLVESGGGVVRPGESLRLSCTASGFTFDSYGMSWVRQAPGKGLEWVSSINVGDNTYYADSVRGRFIISRDSSRNTLYLQMNSLTAEDTAVYYCANWNSFFDYWGLGTLVTVSS
VL: EIVLTQSPGTLSLSPGEIATLSCRASQNVRSDLAWYQQKPGQAPRLLIYDASNRATGIPDRFSGSGSGTDFTLTISSLQSEDFAVYYCQQYSNWPPLTFGGGTKVEIK
notes: also called Ab #3; Antibody Clone # 3

Cross-Reactivity Screen (mAb at 10 ug/mL) [3]: 73.1
Cross-Reactivity Screen (mAb at 10 ug/mL) [4]: 60.2
Cross-Reactivity Screen (mAb at 10 ug/mL) [5]: 0.2
B5: anti-Tie2 antibody #5 (antibody, V domains shown)
VH: DVQLVESGGGVVRPGESLRLSCTASGFSFDVYAMTWVRQAPGKGLEWLTLISGTGRMTYYADSVKGRFTVSRDNSKKTLYLQMNSLRAEDTAVYYCAKDPFGHGFFDYWGLGTLVTVSS
VL: B4 VL with I18R, N28T, R30G, D32K, N53T, S92N
notes: also called Ab #5; Antibody Clone # 5

Kd [11]: 2.34 nM
koff [11]: 0.000377 s⁻¹
kon [11]: 161000 M⁻¹ s⁻¹
Kd [12]: 3.21 nM
koff [12]: 0.000876 s⁻¹
kon [12]: 273000 M⁻¹ s⁻¹
Kd [13]: 2.56 nM
kon [13]: 254000 M⁻¹ s⁻¹
B6: antibody clone #3 Fab (Fab, V domains shown)
VH: B4 VH
VL: B4 VL

Cross-Reactivity Screen (mAb at 10 ug/mL) [3]: 78.8
Cross-Reactivity Screen (mAb at 10 ug/mL) [4]: 63.7
Cross-Reactivity Screen (mAb at 10 ug/mL) [5]: 0.3
B7: anti-Tie2 antibody #6 (antibody, V domains shown)
VH: B5 VH
VL: EIVLTQSPGTLTLSPGETATLTCRASQSVNRNLAWYQEKPDQAPRLLIYDARTRATGVPDRFSGSGSGTDFTLTINSLQSEDFAVYVCQQYYDWPPFTFGGGTKVEIK
notes: also called Ab #6; Antibody Clone # 6

EC50 of pAkt relative to total Akt in HUVEC cells (western blot, quantitative fluorescence imaging) [1]: 0.91 nM
EC50 [2]: 2 nM
Cross-Reactivity Screen (mAb at 10 ug/mL) [3]: 74.1
Cross-Reactivity Screen (mAb at 10 ug/mL) [4]: 60.7
Cross-Reactivity Screen (mAb at 10 ug/mL) [5]: 0.4
EC50 [7]: 8 nM
EC50 [9]: 7.8 nM
B8: human anti-Tie2 antibody #1 (antibody, V domains shown)
VH: DVQLVESGGGVVRPGESLRLSCAASGFTFSSYAMSWVRQAPGEGLEWVARISDYTIYYADSVKGRFTISRDNSKNTLYLQMNSLRAEDTAVYYCAKSGPKSGKYWNNFFDSWGLGTLVTVSS
VL: EIVLTQSPGTLSVSPGERATLTCRASQSVKTDLAWYQQKPGQAPRLLIYGATTRATGIPARFSGSGSGTEFTLTITNLQSEDFAVYYCQQYYVWPPLTFGGGTKVEIK
notes: also called Ab #1; Antibody Clone # 1
